The text below walks through data of patent US20210147519A1 (Regeneron, published 2021).

Numbering of substitutions follows the chain as printed.

Sequences and labels used below:
B1: H1H20639D (bispecific antibody, V domains shown)
VH 1: QLQLQESGPGLVKPSETLSLTCTVSGGSISSSSYYWVWIRQPPGKGLEWIGNIYFSGSTYYNPSLKSRVTITVDTSKNQFSLKMTSVTAADTAVYYCARPFYGSRGDYYYGMDVWGQGTTVTVSS
VH 2: QVQLVESGGGVVQPGRSLRLSCAASGFTFSSYGMHWVRQAPGKGLEWVTNIWYDGNNKYYTDSVKGRFTISRDNSKNTLYLQMNSLTAEDTAVYYCARDGDYYVMDVWGQGTTVTVSS
VL: not shown
notes: also called anti-IsdB x anti-C1q bispecific antibody
B2: H1H20644D (bispecific antibody, V domains shown)
VH 1: B1 VH 1
VH 2: QVQLVESGGGVVQPGRSLRLSCATSGFTFSSYGMHWVRQAPGKGLEWVALIWYDRNNEYYADSVKGRFTISRDNSKNTLYLQMNSLRAEDTAVYYCARGEWEMDYWGQGTLVTVSS
VL: not shown
notes: as for B1
B3: H1H20647D (bispecific antibody, V domains shown)
VH 1: B1 VH 1
VH 2: B1 VH 2 with T49A, N50L, N56S, Y60F, T61A, N74I, T87R, V104G
VL: not shown
notes: as for B1
B4: H1H20634D (bispecific antibody, V domains shown)
VH 1: EVQLVESGGGLVQPGRSLRLSCTTSGFTFDDYAMHWVRQVPGQGLEWVAGLSWNSDTIGYADSVKGRFTISRDNAKNSLYLQMKSLKAEDTALYYCTKDFYHSLNNWNYYYFDYWGQGTLVTVSS
VH 2: QVQLVESGGGVVQPGRSLRLSCVASGFTFSSYGFHWVRQAPGKGLEWVAVIWYDGSNEGYVDSVRGRFTISRDFSKNTLYLQMNSLRIEDTAVYYCARRGDYYIMDVWGQGTTVTVSS
VL: not shown
notes: as for B1
B5: H1H20640D (bispecific antibody, V domains shown)
VH 1: B1 VH 1
VH 2: EVQLVQSGPEVKKPGESLKISCKGSGYNFLGYWIGWVRQMPEKGLEWMAFIYPGDSDFRYSPSFQGQVTISVDRSVTTAYLHWSSLKASDTGIYFCVRQTGNGMDVWGQGTTVTVSS
VL: not shown
notes: as for B1
B6: H1H20646D (bispecific antibody, V domains shown)
VH 1: B1 VH 1
VH 2: EVQLVQSGAEVRKPGESLKISCKGSGFSFTSYWIGWVRQMPGKGLEWMGIIFPADSDTRYSPSFQGQVTISADKSINTAYLQWRSLKVSDTAMYYCTKLQYWYFDLWGRGTLVTVSS
VL: not shown
notes: as for B1
B7: H1H20643D (bispecific antibody, V domains shown)
VH 1: B1 VH 1
VH 2: EVQLVQSGAEVKKPGDSLKISCKGSGYSFTTYWIGWVRQMPGKGLEWMGIIFPGDSDTRYSPSFQGQVTISADKSINTAYLQWSSLKASDTAIYYCARHNRWVADYWGQGTLVTVSS
VL: not shown
notes: as for B1

T2 sequence (A6QG30 42-613, tags left off): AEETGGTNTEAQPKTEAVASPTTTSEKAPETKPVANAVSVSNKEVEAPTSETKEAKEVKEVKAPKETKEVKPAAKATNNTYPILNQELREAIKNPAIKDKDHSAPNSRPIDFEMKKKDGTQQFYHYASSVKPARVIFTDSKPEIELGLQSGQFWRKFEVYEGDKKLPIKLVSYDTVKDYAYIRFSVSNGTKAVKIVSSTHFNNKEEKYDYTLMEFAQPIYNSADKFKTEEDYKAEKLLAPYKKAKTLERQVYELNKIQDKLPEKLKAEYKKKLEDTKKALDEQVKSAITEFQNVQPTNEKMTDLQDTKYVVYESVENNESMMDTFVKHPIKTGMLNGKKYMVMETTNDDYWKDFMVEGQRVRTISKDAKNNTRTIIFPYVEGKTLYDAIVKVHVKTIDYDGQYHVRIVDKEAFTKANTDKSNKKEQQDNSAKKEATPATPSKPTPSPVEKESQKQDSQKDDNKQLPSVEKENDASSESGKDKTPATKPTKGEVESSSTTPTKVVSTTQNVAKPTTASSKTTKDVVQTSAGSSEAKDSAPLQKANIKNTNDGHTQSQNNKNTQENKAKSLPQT

The target of one assay is T1, native human complement component C1q protein purified from human serum (Quidel) (human, UniProt P02745 23-245; P02746 28-253; P02747 29-245). The assay can be described thus: cell-based or functional assay.
T1 sequence (P02745 23-245 limits assumed, chain 1 of 3): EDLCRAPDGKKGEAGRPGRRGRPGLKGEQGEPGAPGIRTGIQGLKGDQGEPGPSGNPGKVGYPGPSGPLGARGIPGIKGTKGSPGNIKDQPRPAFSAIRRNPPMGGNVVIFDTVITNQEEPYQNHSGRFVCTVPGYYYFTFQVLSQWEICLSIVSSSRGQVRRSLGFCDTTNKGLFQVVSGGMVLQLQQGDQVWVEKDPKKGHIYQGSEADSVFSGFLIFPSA
T1 sequence (P02746 28-253 limits assumed, chain 2 of 3): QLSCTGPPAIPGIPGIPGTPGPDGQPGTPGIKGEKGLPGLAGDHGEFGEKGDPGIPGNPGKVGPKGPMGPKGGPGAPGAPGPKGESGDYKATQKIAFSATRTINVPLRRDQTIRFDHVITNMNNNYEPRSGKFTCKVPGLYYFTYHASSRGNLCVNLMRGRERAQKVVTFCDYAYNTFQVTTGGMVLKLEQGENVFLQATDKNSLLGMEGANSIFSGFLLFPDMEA
T1 sequence (P02747 29-245 limits assumed, chain 3 of 3): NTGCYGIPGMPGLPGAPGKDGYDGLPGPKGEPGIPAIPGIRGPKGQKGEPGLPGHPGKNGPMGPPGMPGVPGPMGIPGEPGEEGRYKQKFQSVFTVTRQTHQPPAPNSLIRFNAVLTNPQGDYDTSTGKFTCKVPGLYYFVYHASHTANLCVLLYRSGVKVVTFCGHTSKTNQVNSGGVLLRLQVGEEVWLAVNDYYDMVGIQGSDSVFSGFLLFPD
Take B1: the “C1q deposition on S. aureus Cowan I EC50” value was determined as 2.06 nM.

Take B2: the “C1q deposition on S. aureus Cowan I EC50” value amounted to 1.12 nM.

In the case of B3, the “C1q deposition on S. aureus Cowan I EC50” value was 0.587 nM.

The target in a further assay is T1, native human complement component C1q …. The assay can be described thus: competition ELISA, 30 pM biot-hC1q, competitor plate-coated hIgG3-k. In general terms: In an ELISA, binding on a coated surface is turned into a signal by an enzyme label.
Regarding B1, the “% Blockade with 30 nM bispecific Ab” value is 33%.

Regarding B2, the “% Blockade with 30 nM bispecific Ab” value came out at 36%.

For B3, the “% Blockade with 30 nM bispecific Ab” value turned out to be 60%.

A further assay concerns the target T2, Recombinant bacterial IsdB expressed with a hexahistidine tag (IsdB-6xHis; REGN2655) (Staphylococcus aureus, UniProt A6QG30 42-613). Description: SPR Biacore, captured Ab, IsdB-6xHis analyte, 25C. (SPR reads the build-up and loss of mass on a sensor chip optically.)
One may read the Kd as the free concentration of one partner at which half of the binding sites on the other are occupied at equilibrium, for simple one-to-one binding. Usually koff stands for a measure of how fast the partners let go of each other. By kon is commonly meant a measure of how fast the partners come together. One may read the t½ as the time in which the quantity being followed falls by half. As to B4, the Kd was found to be 2.65 nM, the koff amounted to 0.000296 s⁻¹, the kon came out at 112000 M⁻¹ s⁻¹ and the t½ was 39 min.

Consider B1, for which the Kd is 11.3 nM, the koff came to 0.000562 s⁻¹, the kon was 49800 M⁻¹ s⁻¹ and the t½ is 20.5 min.

For B5, the Kd came to 9.36 nM, the koff was 0.000553 s⁻¹, the kon stood at 59100 M⁻¹ s⁻¹ and the t½ was 20.9 min.

Turning to B6, the Kd was found to be 9.74 nM, the koff came to 0.000433 s⁻¹, the kon amounted to 44500 M⁻¹ s⁻¹ and the t½ came out at 26.7 min.

In the case of B7, the equilibrium dissociation constant (Kd) was found to be 9.42 nM, the koff worked out at 0.000555 s⁻¹, the association rate constant (kon) came out at 58900 M⁻¹ s⁻¹ and the t½ worked out at 20.8 min.

B2: the Kd was 11 nM, the koff was 0.000554 s⁻¹, the kon turned out to be 50300 M⁻¹ s⁻¹ and the t½ was 20.8 min.

Regarding B3, the Kd was found to be 12.3 nM, the koff came to 0.000565 s⁻¹, the kon is 46000 M⁻¹ s⁻¹ and the t½ is 20.4 min.

For another assay, the target named is T2, Recombinant bacterial IsdB expressed …. The assay can be described thus: SPR Biacore, captured Ab, IsdB-6xHis analyte, 37C.
Consider B4, for which the equilibrium dissociation constant (Kd) turned out to be 3.81 nM, the koff worked out at 0.000573 s⁻¹, the kon turned out to be 150000 M⁻¹ s⁻¹ and the t1/2 is 20.2 min.

For B1, the Kd is 18.5 nM, the koff is 0.00148 s⁻¹, the kon was 80200 M⁻¹ s⁻¹ and the t1/2 amounted to 7.81 min.

On to B5, for which the Kd came out at 17.2 nM, the koff was determined as 0.00142 s⁻¹, the kon was 82800 M⁻¹ s⁻¹ and the t1/2 amounted to 8.13 min.

For B6, the Kd came to 18.5 nM, the koff is 0.0015 s⁻¹, the kon amounted to 80700 M⁻¹ s⁻¹ and the t1/2 was found to be 7.72 min.

In the case of B7, the Kd turned out to be 18.5 nM, the koff worked out at 0.00148 s⁻¹, the kon was 79900 M⁻¹ s⁻¹ and the t1/2 turned out to be 7.81 min.

Regarding B2, the Kd was 18.2 nM, the koff is 0.0015 s⁻¹, the kon worked out at 82500 M⁻¹ s⁻¹ and the t1/2 came out at 7.7 min.

As for B3, the Kd was 21.5 nM, the koff is 0.00154 s⁻¹, the kon turned out to be 71500 M⁻¹ s⁻¹ and the t1/2 is 7.51 min.

For a further assay, the target named is T1, native human complement component C1q …. Description: SPR Biacore, captured Ab, hC1q analyte, 37C.
Molecule B1 showed a Kd of 0.664 nM, a koff of 0.00859 s⁻¹, a kon of 1.29e+07 M⁻¹ s⁻¹ and a t1/2 of 1.34 min.

As to B2, the Kd amounted to 0.924 nM, the koff was found to be 0.0276 s⁻¹, the kon stood at 2.98e+07 M⁻¹ s⁻¹ and the t1/2 came out at 0.42 min.

The molecule B3 showed a Kd of 0.439 nM, a koff of 0.00576 s⁻¹, a kon of 1.31e+07 M⁻¹ s⁻¹ and a t1/2 of 2 min.

A further assay has the same target. The assay can be described thus: SPR Biacore, captured Ab, hC1q analyte, 25C.
As to B1, the Kd was found to be 0.655 nM, the koff came out at 0.00612 s⁻¹, the kon was found to be 9.35e+06 M⁻¹ s⁻¹ and the t½ came out at 1.89 min.

B2 registered a Kd of 0.232 nM, a koff of 0.00624 s⁻¹, a kon of 2.69e+07 M⁻¹ s⁻¹ and a t½ of 1.85 min.

B3 returned a Kd of 0.368 nM, a koff of 0.0034 s⁻¹, a kon of 9.25e+06 M⁻¹ s⁻¹ and a t½ of 3.39 min.

The next assay has the same target. Description: competition ELISA, 6 nM biot-hC1q, competitor plate-coated hIgM.
Broadly, the IC50 is the point on the concentration scale where inhibition reaches its midpoint. With B1, the “% Blockade with 600 nM bispecific Ab” value is 86% and the IC50 was 42 nM.

For the molecule B2, the “% Blockade with 600 nM bispecific Ab” value is 75% and the IC50 was 43 nM.

Consider B3, for which the “% Blockade with 600 nM bispecific Ab” value worked out at 91% and the IC50 turned out to be 25 nM.

In another assay the target is T3, IsdB expressed on the surface of S. aureus Wood 46 (Staphylococcus aureus).
T3 construct: whole, on cells
T3 sequence (Q2FZF0 41-613): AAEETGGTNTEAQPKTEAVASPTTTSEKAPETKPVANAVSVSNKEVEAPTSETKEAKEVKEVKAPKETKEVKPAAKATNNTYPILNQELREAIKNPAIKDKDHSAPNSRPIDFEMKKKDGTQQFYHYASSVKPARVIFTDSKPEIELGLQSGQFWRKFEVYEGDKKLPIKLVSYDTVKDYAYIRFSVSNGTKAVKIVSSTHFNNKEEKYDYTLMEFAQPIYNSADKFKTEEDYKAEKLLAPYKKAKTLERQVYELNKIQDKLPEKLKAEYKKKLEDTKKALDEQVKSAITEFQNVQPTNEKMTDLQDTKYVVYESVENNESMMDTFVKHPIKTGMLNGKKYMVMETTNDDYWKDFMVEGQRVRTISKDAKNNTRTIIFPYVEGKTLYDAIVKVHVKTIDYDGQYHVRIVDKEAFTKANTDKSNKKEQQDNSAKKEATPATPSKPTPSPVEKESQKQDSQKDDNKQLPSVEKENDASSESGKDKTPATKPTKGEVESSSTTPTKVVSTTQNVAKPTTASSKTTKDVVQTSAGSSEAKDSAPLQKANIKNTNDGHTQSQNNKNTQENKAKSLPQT
The assay can be described thus: ELISA on plate-coated S. aureus Wood 46.
Procedure: Briefly, S. aureus Wood 46 was grown in RPMI overnight, washed in PBS and adjusted to an OD₆₀₀ of 0.25. MaxiSorp 96 well microtiter plates were coated overnight with 100 μl of S. aureus culture per well. Plates were washed and blocked with 3% BSA. […] Anti-human HRP conjugated secondary antibody was added to washed plates. Luminescence reagents (SuperSignal Pico) were then added to the wells and signal was detected in a plate reader (Victor X3 plate reader, Perkin Elmer) immediately. Luminescence values were analyzed by a four-parameter logistic equation over a 7-point response curve (GraphPad Prism) to determine the binding EC₅₀, of the antibodies.
What is called EC50 is the concentration at which the effect is half-maximal. Turning to B4, the EC50 was 1.04 nM.

Turning to B1, the EC50 is 13.3 nM.

The molecule B5 showed an EC50 of 18 nM.

On to B6, for which it took 12.9 nM to reach a half-maximal effect (EC50).

B7 registered an EC50 of 10.1 nM.

The molecule B2 had an EC50 of 12.6 nM.

On to B3, for which a half-maximal effect (EC50) was put at 7.3 nM. This EC50 is about 1.7-fold lower than that of the molecule before.

The target of a further assay is T1, native human complement component C1q …. Description: competition ELISA, 6 nM biot-hC1q, competitor plate-coated hIgG2-k.
Consider B1, for which the “% Blockade with 600 nM bispecific Ab” value stood at 82% and the IC50 was 70 nM.

On to B2, for which the “% Blockade with 600 nM bispecific Ab” value came to 81% and the IC50 came to 63 nM.

For B3, the “% Blockade with 600 nM bispecific Ab” value was 80% and the IC50 was determined as 32 nM.

Another assay has the same target. The assay can be described thus: competition ELISA, 30 pM biot-hC1q, competitor plate-coated hIgG1-k.
B1: the “% Blockade with 30 nM bispecific Ab” value amounted to 64%.

As to B2, the “% Blockade with 30 nM bispecific Ab” value amounted to 66% and the IC50 came to 24 nM.

Consider B3, for which the “% Blockade with 30 nM bispecific Ab” value stood at 85% and the IC50 turned out to be 9 nM.

The next assay has the same target. Description: cell-based or functional assay. This is another data set of the same source.
For B1, the “inhibition of CDC of Daudi cells, IC50 [M]” value (“inhibition of CDC … [M]” for short) was more than 1e-07 M and the “inhibition of CDC of Daudi cells, Max % Inhibition” value (from here on “inhibition … Max % Inhibition”) is 70%.

In the case of B2, the “inhibition of CDC … [M]” value is more than 1e-07 M and the “inhibition … Max % Inhibition” value stood at 88%.

As to B3, the “inhibition of CDC … [M]” value is more than 1e-07 M and the “inhibition … Max % Inhibition” value came to 82%.
